In the Human Domainome abundance scans (Beltran et al. 2025):

B1: Transcription factor SOX-11, residues 50 to 117; numbered along this chain, P35716 (parent)
chain: KRPMNAFMVWSKIERRKIMEQSPDMHNAEISKRLGKRWKMLKDSEKIPFIREAERLRLKHMADYPDYK
B2: Cell division cycle and apoptosis regulator protein 1, residues 625 to 674; numbered along this chain, Q8IX12 (parent)
chain: ISTPTHWSKLDPKTMKVNDLRKELESRALSSKGLKSQLIARLTKQLKVEE

Variants of: B1
Experiment: abundance fitness (aPCA) (normalised: wild type 0, dead -1); higher = more abundant; growth selection in yeast, the domain comes from the species named
Conditions: Homo sapiens

Abundance fitness of substitutions, site by site:
W10: Q -1.09
P3: T -0.083
A53: M -0.33
M40: K 0.29
W38: F -0.801
H26: A 0.158
G35: L 0.162
A28: C -0.268; T -0.134
R37: D -0.27
S11: P -0.599
S22: Y 0.165; W -0.024
K17: M -0.533
D66: I -0.382; Y -0.36
M25: D -0.717; K -0.608
D43: H -0.129
V9: G -0.687
K36: R -0.011; M -0.047; V 0.052; P -0.868
I30: W -0.611; R -0.879
M19: D -0.649
Y67: N 0.203; V -0.214
N27: D 0.403
E45: Y -0.395; G -1.04
E20: T -0.185
E52: K -0.577; T -0.397
Q21: S -0.172; G -0.256
K32: H -0.036
M4: G -0.28
D24: W -0.337
A62: V -0.139; F -0.2
I18: K -0.856; P -0.619

Variants of: B2
Experiment: as above
Conditions: Homo sapiens

Abundance fitness, by site and new letter:
K9: M -0.077; V -0.129; Q 0.04; N -0.136; E -0.068; W -0.235; G -0.154; F -0.317; H -0.091; L -0.066; P -0.576; I -0.254; C -0.243; D -0.084; S -0.166; T -0.125; R 0.009; A -0.016; Y -0.158
V17: A -0.093; H -0.165; K 0.022; M 0.065; G -0.146; F -0.071; N 0.249; L 0.026; I 0.013; D -0.114; C 0.115
D11: T 0.218; M 0.028; H 0.074; C 0.093; V -0.038; R 0.078; Y -0.036; L -0.054; E 0.071; I 0.066; W -0.109; K 0.154; Q 0.072; P -0.738; G -0.335; S 0.051; N 0.054; A 0.043
K13: S -0.147; H -0.135; I -0.052; W -0.474; N 0.081; E -0.195; V -0.04; Y -0.23; A -0.094; M 0.002; C -0.302; R -0.221; P -0.187; Q -0.13; D -0.16; T -0.13; G -0.255; L -0.241; F -0.308
K16: F -0.191; L -0.061; Y -0.153; S -0.011; W -0.354; E -0.066; R -0.173; A -0.227; I -0.127; M -0.24; G -0.059; D -0.068; C -0.048; P -0.15; H 0.061; N 0.033; V -0.228; T -0.142
P4: K 0.112; Y 0.012; W -0.142; Q -0.108; V -0.033; D -0.074; R 0.075; E -0.052; I 0.029; G 0.1; F -0.072; N -0.133; H -0.206; C 0.139; S 0.15; T -0.035
H6: K -0.008; V -0.003; L 0.067; P 0.044; A 0.014; S -0.056; R -0.092; G -0.132; N 0.054; M -0.036; D 0.009; I -0.014; C -0.065; T -0.05; E 0.062; F -0.037; Y -0.042; Q -0.062; W -0.135
I1: V -0.11; Y -0.206; W -0.478; F 0.207; D -0.641; A 0.049; T -0.145; R -0.458; L -0.3; M -0.123; N -0.33; E -0.314; G -0.261; C -0.398; K -0.257
S2: T 0.079; V 0.06; M 0.127; N 0.23; W -0.083; I 0.18; A -0.072; D 0.064; R -0.021; P -0.175; G -0.003; Q -0.06; H -0.037; C 0.029; F 0.103; K 0.096
T14: Q -0.022; V -0.029; N 0.038; R 0.178; F -0.204; C -0.074; I 0.007; E -0.011; M -0.013; Y -0.05; H 0.135; D -0.061; A -0.019; K 0.257; L -0.131; P -0.798; S -0.005
P12: Y -0.74; F -0.762; W -0.488; M -0.141; A -0.142; C -0.223; L -0.189; S -0.665; R -0.89; H -0.865; Q -0.749; E -0.754; D -1.02; T -0.207; I -0.324; K -0.875; N -0.965; G -0.655
L10: V -0.231; R -0.593; D -0.748; S -0.577; I -0.203; K -0.538; W -0.953; G -0.562; C -0.338; P -0.606; Y -0.709; F -0.535; N -0.516; H -0.701; E -0.704; M -0.107; A -0.474; Q -0.516
W7: G -0.187; Q -0.279; V -0.157; F -0.022; N -0.29; Y -0.051; R -0.178; T -0.103; K -0.142; C -0.112; L -0.223; A -0.088; D -0.197; I -0.258; M -0.122; P -0.101; E -0.139; S -0.104
S8: A -0.081; M -0.254; R -0.189; N -0.09; Q -0.395; E -0.006; F -0.338; K -0.061; C -0.007; I -0.407; Y -0.173; V -0.304; P -0.616; T -0.113; G -0.036; D -0.126; H -0.074; W -0.272
T3: I -0.114; Y 0.124; P -0.162; D -0.136; R -0.076; C -0.025; M -0.004; L -0.037; H -0.288; G -0.096; W -0.252; Q -0.197; A -0.203; F -0.121; K 0.042; E -0.007
M15: H -0.996; G -0.94; F -1.02; Y -0.926; N -0.942; Q -0.679; D -0.775; S -0.75; K -0.668; E -0.949; P -0.83; W -0.899; A -0.543; R -0.758; I -0.711; V -0.745; L -0.172
T5: N -0.42; W -0.616; M -0.067; S 0.042; H -0.234; A 0.026; Y -0.423; G -0.225; R -0.103; D -0.689; K -0.111; P -0.384; F -0.772; I -0.332; C -0.483; E -0.082; Q -0.091
